Two molecules from PMC9132681 (Biochimie, 2022) can be followed below.

The labels stand for the following.
B1: cytosolic fragment of human TOM70 (residues 111-608), His-tagged (domain or fragment)
chain: LDRAQAAKNKGNKYFKAGKYEQAIQCYTEAISLCPTEKNVDLSTFYQNRAAAFEQLQKWKEVAQDCTKAVELNPKYVKALFRRAKAHEKLDNKKECLEDVTAVCILEGFQNQQSMLLADKVLKLLGKEKAKEKYKNREPLMPSPQFIKSYFSSFTDDIISQPMLKGEKSDEDKDKEGEALEVKENSGYLKAKQYMEEENYDKIISECSKEIDAEGKYMAEALLLRATFYLLIGNANAAKPDLDKVISLKEANVKLRANALIKRGSMYMQQQQPLLSTQDFNMAADIDPQNADVYHHRGQLKILLDQVEEAVADFDECIRLRPESALAQAQKCFALYRQAYTGNNSSQIQAAMKGFEEVIKKFPRCAEGYALYAQALTDQQQFGKADEMYDKCIDLEPDNATTYVHKGLLQLQWKQDLDRGLELISKAIEIDNKCDFAYETMGTIEVQRGNMEKAIDMFNKAINLAKSEMEMAHLYSLCDAAHAQTEVAKKYGLKPPTL

One test concerns the target full-length human Hsp90 (human, UniProt P07900 1-732). Kind of test: pull-down.
Test [1] deals with B1. Kind of test: SEC-MALS. Background: In gel filtration, larger molecules generally elute earlier.

On to B1, for which the binding result in the test with full-length human Hsp90 was “binds”.

B2: C-terminal domain of human Hsp90 (residues 566-732) (domain or fragment)
chain: not shown
Regarding B2, the stoichiometry N – broadly, a count of units in the complex or per binding partner – in test [1] came to 2 C-Hsp90 per TOM70.
